Test: Stability study in D2O (formaldehyde release monitored by NMR; MALDI-TOF of hydrolyzed product)
Procedure: Compound III, V, and XIV (6 mg) were separately dissolved in 0.75 ml of D2O and stored at 37° C. The methylene peak disappearance as well as methyl peak shift were monitored by 300 MHz NMR over time. The half-life of the formaldehyde release reaction was monitored using first order kinetics.

Substance | half-life (t1/2) of the formaldehyde release reaction | dimerization (MALDI-TOF spectrum of hydrolyzed compound) (after hydrolysis in D2O at 37° C.)
2-mPEGyloxy5k-4,6-di-(N-methyl-N-hydroxymethylamino)-1,3,5-triazine [Compound III] | 81 h | –
2-mPEGyloxy350-4,6-di-(N-methyl-N-hydroxymethylamino)-1,3,5-triazine [V] | 81 h | no detectable dimerization

— patent publication US20020182172A1, “Water-soluble polymer conjugates of triazine derivatives” (Shearwater Corporation, priority 2000, published 2002)
